The source of these data is US20220213456.

Assay in all cases: cleavage_in_vitro
For data set [1], the system named is T1, OMNI-46 (Carnobacterium funditum).
T1 sequence: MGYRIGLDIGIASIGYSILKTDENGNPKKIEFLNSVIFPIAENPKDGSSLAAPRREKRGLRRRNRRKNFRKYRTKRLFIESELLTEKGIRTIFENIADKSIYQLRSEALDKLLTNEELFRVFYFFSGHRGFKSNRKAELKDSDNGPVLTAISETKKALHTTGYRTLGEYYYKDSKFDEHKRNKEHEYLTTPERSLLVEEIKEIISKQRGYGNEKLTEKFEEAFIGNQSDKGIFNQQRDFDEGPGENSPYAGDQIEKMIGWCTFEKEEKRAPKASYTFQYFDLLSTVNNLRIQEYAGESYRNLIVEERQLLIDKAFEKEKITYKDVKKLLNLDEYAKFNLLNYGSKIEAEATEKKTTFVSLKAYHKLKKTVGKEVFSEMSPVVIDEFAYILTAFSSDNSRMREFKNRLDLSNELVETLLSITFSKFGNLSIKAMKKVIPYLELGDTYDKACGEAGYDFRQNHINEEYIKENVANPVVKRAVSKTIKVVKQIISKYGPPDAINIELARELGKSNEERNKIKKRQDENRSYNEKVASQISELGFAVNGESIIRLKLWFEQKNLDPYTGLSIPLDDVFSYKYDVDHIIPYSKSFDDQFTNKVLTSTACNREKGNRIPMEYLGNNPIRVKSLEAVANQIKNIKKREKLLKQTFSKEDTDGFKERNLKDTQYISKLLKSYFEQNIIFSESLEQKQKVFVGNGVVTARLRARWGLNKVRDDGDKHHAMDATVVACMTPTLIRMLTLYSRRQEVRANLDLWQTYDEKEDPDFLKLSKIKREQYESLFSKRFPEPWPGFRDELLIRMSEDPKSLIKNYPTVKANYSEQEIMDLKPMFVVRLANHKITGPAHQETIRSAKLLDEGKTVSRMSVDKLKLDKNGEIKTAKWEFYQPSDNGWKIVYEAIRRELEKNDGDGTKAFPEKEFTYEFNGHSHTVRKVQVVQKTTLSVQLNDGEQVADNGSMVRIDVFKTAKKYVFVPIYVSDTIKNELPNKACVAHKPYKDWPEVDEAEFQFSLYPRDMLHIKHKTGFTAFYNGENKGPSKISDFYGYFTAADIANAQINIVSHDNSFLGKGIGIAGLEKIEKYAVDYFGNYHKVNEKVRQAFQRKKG
The note with it: TXTL; PAM YAAAR.

In data set [2] the test system is T2, OMNI-42 (Caviibacter abscessus).
T2 sequence: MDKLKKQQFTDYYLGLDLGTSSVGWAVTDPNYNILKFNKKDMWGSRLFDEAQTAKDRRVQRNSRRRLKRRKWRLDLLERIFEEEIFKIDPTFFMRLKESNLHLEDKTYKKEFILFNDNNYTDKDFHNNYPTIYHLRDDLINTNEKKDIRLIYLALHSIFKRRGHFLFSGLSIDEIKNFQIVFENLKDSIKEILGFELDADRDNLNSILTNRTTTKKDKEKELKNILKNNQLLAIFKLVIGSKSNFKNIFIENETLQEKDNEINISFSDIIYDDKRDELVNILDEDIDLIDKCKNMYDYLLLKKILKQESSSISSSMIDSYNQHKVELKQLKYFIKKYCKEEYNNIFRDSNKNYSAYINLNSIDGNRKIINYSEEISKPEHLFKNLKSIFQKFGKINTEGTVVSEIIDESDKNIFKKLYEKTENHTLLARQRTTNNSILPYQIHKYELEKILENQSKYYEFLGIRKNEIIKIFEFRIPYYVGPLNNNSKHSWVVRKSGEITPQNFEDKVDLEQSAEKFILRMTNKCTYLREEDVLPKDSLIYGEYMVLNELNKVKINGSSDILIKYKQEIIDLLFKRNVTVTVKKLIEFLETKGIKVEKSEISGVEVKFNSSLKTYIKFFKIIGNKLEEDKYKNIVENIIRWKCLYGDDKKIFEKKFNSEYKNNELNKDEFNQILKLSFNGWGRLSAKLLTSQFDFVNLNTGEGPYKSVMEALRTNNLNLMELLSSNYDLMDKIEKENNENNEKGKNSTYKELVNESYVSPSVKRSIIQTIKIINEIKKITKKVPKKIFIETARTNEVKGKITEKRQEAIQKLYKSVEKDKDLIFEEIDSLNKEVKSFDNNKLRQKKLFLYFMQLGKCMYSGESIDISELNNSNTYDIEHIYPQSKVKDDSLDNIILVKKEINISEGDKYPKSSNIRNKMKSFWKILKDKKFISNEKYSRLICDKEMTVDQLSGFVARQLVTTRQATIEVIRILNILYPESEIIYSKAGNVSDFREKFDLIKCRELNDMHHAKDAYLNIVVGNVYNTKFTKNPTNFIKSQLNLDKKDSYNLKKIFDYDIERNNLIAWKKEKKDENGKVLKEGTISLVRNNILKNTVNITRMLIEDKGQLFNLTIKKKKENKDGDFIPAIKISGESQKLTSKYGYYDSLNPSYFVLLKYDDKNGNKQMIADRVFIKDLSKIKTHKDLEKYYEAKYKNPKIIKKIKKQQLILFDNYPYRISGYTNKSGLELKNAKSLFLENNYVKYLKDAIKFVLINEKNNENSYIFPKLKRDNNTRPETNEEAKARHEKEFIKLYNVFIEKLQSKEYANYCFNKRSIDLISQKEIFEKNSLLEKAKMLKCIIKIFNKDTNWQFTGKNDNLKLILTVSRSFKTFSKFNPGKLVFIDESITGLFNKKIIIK
To be noted: TXTL; PAM NNGMM (specific NTGCC); FIG. 3F states V2, table states V1.

Data set [3] concerns T3, OMNI-43 (Arcobacter sp. SM1702).
T3 sequence: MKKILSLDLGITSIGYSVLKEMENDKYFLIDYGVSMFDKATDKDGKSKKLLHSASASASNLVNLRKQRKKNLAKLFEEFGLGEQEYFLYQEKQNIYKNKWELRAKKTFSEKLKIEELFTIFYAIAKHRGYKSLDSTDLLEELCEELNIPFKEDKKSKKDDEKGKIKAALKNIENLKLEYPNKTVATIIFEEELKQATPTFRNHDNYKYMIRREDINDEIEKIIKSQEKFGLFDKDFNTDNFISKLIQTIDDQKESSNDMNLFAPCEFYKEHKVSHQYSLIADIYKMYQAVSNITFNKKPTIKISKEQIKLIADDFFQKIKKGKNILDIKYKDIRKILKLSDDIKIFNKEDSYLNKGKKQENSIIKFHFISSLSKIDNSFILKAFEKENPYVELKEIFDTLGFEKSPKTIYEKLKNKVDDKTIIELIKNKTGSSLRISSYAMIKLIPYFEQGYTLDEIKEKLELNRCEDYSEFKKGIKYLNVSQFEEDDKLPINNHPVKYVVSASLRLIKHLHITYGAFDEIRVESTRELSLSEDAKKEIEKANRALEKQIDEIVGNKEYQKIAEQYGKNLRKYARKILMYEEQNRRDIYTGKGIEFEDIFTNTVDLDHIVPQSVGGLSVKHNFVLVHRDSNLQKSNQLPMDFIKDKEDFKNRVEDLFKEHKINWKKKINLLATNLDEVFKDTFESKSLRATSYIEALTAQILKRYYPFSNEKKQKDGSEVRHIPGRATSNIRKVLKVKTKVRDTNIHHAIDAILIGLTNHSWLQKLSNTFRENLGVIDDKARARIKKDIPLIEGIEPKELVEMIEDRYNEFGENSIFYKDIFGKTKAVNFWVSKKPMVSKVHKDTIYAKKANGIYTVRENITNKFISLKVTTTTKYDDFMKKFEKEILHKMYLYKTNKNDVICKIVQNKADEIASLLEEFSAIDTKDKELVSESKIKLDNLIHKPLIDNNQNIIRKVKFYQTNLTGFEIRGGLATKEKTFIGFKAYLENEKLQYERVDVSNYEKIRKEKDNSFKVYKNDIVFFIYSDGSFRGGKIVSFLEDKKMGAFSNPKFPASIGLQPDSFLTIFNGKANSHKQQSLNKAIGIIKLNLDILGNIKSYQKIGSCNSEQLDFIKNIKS
The note with it: TXTL; PAM YAAAR; V1, V2 tested.

Data set [4] concerns T4, OMNI-44 (Arcobacter mytili).
T4 sequence: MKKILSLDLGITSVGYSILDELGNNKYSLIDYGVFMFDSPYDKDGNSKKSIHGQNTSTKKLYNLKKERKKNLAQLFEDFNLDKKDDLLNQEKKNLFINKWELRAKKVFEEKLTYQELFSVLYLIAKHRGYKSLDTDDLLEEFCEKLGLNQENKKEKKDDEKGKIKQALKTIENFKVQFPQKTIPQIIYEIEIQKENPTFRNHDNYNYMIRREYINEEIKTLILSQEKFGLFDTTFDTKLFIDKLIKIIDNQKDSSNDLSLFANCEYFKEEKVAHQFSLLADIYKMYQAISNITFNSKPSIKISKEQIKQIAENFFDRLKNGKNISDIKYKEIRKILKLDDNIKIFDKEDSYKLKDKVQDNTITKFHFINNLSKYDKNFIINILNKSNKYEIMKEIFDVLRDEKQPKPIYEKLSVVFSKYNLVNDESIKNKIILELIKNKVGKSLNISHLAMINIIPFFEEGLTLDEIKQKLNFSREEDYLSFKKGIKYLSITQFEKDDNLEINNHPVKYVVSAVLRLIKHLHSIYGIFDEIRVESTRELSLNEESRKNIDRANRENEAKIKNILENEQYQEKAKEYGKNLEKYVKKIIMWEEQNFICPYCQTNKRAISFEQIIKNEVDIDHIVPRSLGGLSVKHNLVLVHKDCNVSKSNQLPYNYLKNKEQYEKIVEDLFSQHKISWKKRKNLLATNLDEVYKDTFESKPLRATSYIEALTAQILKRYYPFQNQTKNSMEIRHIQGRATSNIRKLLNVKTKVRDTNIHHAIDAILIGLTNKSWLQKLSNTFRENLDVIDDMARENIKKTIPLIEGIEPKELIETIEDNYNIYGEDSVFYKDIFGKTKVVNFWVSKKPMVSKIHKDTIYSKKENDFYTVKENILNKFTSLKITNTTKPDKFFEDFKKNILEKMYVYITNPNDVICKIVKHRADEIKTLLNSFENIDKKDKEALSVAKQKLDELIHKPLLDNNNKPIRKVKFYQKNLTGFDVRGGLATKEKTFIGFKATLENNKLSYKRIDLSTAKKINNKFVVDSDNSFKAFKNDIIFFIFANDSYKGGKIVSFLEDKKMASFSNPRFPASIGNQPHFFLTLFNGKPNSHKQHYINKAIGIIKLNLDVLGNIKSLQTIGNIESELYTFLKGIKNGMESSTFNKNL
The note with it: TXTL; PAM NRHAA; FIG. 3H states V2, table states V3.

Sequence “GGAAGAGCAGAGCCUUGGUCUCGCUAUACGUUCCUUACAAAAUCGGGAAACCGACUUUGCAAGGAACGUAUAGUAAAGGGAGUGCUCUGCACUCUCCUGUAAAGCACUAACCCCAUUUUCUUCGGAGAAUGGGGUUAUCUUUUU / GGAAGAGCAGAGCCTTGGTCTCNNNNNNNN / NNNNNNNNGAGACCAAGGCTCTGCTCTTCC [OMNI-46 T2 sgRNA V2 ; pbPOS T2 protospacer 8N PAM library]” gave an activity (1-depletion score) in data set [1] of 0.95. For “GGAAGAGCAGAGCCUUGGUCUCGUUUAAGAGUUAUGUAAGAAAUUACAUAACGAGUUUAAAUAAAAAUUUAUUGAAAUCGUCAAAUUAUUUUUGACUAGCCUCUUUUUGAAGAGGUUUUUUU / GGAAGAGCAGAGCCTTGGTCTCNNNNNNNN / NNNNNNNNGAGACCAAGGCTCTGCTCTTCC [OMNI-42 T2 sgRNA V2 ; pbPOS T2 protospacer 8N PAM library]”, in data set [2], the activity (1-depletion score) was found to be 0.91.

The sequence “GGAAGAGCAGAGCCUUGGUCUCGUUUUAAUACCCCUACAAACUGGAAACAGUUUAAUAGGGGUAUUAAACUAAGGUUGCUAUUUUAGCAACUGACUUUAGGCAGUGGUUUCGACCACUUGCCCUUUUUU / GGAAGAGCAGAGCCTTGGTCTCNNNNNNNN / NNNNNNNNGAGACCAAGGCTCTGCTCTTCC [OMNI-43 T2 sgRNA V1 ; pbPOS T2 protospacer 8N PAM library]” had an activity (1-depletion score) in data set [3] of 0.91. Sequence “GGAAGAGCAGAGCCUUGGUCUCGUUUUAAUACCCCUAUAAACUACUAGAAAUAGUAGUUUAAUAGGGGUAUUAAACUAAGACUACUUUAAUAGUAGUUGAUUUUAGGAGAUAGUUUUUCUAUCUCCCUUUUU / GGAAGAGCAGAGCCTTGGTCTCNNNNNNNN / NNNNNNNNGAGACCAAGGCTCTGCTCTTCC [OMNI-44 T2 sgRNA V2 ; pbPOS T2 protospacer 8N PAM library]” had an activity (1-depletion score) in data set [4] of 0.96.
